As a reminder, the Kd is a measure of binding affinity in units of concentration. Lower therefore signals a tighter complex. Usually koff stands for the first-order rate constant of dissociation. Broadly, the kon is the second-order rate constant of association. For orientation: EC50 means the concentration giving half of the maximal effect. A lower EC50 goes with an effect from little substance.

Test [1] addresses T1, his-tagged human CDH6 extracellular region protein (hCDH6 ECD-his) (human, UniProt P55285 19-615).
T1 construct: also called Human CDH6-his; hCDH6-his; not shown: his tag
T1 sequence: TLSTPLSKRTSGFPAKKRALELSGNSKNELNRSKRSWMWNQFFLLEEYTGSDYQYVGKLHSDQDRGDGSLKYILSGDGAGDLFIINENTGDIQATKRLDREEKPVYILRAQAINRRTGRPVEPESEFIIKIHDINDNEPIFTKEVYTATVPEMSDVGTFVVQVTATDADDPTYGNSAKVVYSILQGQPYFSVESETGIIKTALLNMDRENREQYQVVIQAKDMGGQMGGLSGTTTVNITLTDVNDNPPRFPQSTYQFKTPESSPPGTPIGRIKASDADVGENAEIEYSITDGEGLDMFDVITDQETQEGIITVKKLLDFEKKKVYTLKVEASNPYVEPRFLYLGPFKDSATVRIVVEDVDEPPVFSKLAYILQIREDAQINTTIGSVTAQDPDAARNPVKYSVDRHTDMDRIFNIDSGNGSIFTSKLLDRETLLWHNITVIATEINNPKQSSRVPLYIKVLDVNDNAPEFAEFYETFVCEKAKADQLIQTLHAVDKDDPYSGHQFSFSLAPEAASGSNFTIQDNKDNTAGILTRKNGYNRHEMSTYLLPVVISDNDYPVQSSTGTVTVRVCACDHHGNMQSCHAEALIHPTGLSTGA
Put plainly: SPR Biacore, antibody captured on Protein A. As for the experimental part:
(§1) The affinity of the antibody for the antigen was determined by a multi-cycle kinetic method using a BIAcore 8K instrument. In each cycle, the antibody to be tested was captured using a Protein A chip (purchased from GE, Cat. No. 29-1275-56), and then the antigen human CDH6 protein (hCDH6-his, conventionally synthesized) was injected. The association and dissociation processes of the antibody with the antigen protein were recorded, and finally, the chip was regenerated using Glycine pH 1.5, wherein the mobile phase was HBS-EP+ (10 mM HEPES, 150 mM NaCl, 3 mM EDTA, 0.05% surfactant P20, and 1 mM Ca), the flow rate was 30 μL/min, the association time was 240 s, the dissociation time was 300 s, the regeneration time was 30 s, the detection temperature was 25° C., and the antigen concentration was 31.25-1000 nM. The data were analyzed using Biacore 8K analysis software (version No. 2.0) based on the 1:1 binding model to fit the antibody-antigen binding kinetic parameters, including the association rate constant ka, the dissociation rate constant kd, and the equilibrium dissociation constant KD. The affinity values of the control antibody DS-H01L02 were undetectable. Antibodies not shown in the table had undetectable affinity values.
Four hCDH6-6 humanized antibodies with fewer back mutations were selected, and the affinity for human CDH6 protein was further confirmed using Biacore.
A general note: SPR reads the build-up and loss of mass on a sensor chip optically.

Test [2] addresses T1, his-tagged human CDH6 extracellular …. Put plainly: ELISA, coated antigen. Here is the method:
Human CDH6 protein (hCDH6 ECD-his, conventionally synthesized), monkey CDH6 protein (cynoCDH6 ECD-his, conventionally synthesized; the cynoCDH6 ECD sequence was derived from Uniprot #A0A2K5TW62 (19-615)), and murine CDH6 protein (mCDH6 ECD-his, conventionally synthesized; the mCDH6 ECD sequence was derived from Uniprot #P97326 (19-615)) were diluted with PBS to a final concentration of 1 μg/mL, and added to a 96-well ELISA plate at 100 μL/well. The plate was incubated at 4° C. overnight. The next day, the plate was washed 3 times with a plate washing solution (PBS+0.01% (v/v) Tween 20), and a blocking buffer (PBS+0.01% (v/v) Tween 20+2% (w/w) BSA) was added for blocking at room temperature for 2 h. The blocking buffer was discarded, and the plate was washed 3 times. The chimeric antibodies were diluted with 1% BSA+PBS (purchased from Cytiva, Cat. No. SH30264.01) and added to the 96-well plate at 50 μL/well. After incubation at 37° C. for 2 h, the plate was washed 3 times with a plate washing solution. […] The plate was incubated at 37° C. for 1 h and then washed 5 times with a plate washing solution. A TMB substrate (purchased from Seracare, Cat. No. 5120-0077) was added at 50 μL/well and incubated at room temperature for 10 min, then a stop solution (1.0 N HCl) was added at 50 μL/well. OD450 nm values were read using a microplate reader (Biotek). Analysis was performed by the GraphPad Prism software, data were fitted, and EC50 values were calculated. The chimeric antibodies tested all had strong binding to the human CDH6 protein, the monkey CDH6 protein, and the murine CDH6 protein.
(§2) According to the above sequences, heavy chain (HC) and light chain (LC) plasmids were constructed (the nucleic acid sequences encoding the VH and VL of the antibodies were recombined into an expression vector carrying a signal peptide (SEQ ID NO: 132, […]) and a heavy chain constant region/light chain constant region sequence to obtain recombinant plasmids expressing VH—CH1-Fc/VL-CL).

Test [3] addresses T2, human CDH6 on tumor cells (OVCAR3 cells, PA-1 cells) (human, UniProt P55285 54-790).
T2 sequence: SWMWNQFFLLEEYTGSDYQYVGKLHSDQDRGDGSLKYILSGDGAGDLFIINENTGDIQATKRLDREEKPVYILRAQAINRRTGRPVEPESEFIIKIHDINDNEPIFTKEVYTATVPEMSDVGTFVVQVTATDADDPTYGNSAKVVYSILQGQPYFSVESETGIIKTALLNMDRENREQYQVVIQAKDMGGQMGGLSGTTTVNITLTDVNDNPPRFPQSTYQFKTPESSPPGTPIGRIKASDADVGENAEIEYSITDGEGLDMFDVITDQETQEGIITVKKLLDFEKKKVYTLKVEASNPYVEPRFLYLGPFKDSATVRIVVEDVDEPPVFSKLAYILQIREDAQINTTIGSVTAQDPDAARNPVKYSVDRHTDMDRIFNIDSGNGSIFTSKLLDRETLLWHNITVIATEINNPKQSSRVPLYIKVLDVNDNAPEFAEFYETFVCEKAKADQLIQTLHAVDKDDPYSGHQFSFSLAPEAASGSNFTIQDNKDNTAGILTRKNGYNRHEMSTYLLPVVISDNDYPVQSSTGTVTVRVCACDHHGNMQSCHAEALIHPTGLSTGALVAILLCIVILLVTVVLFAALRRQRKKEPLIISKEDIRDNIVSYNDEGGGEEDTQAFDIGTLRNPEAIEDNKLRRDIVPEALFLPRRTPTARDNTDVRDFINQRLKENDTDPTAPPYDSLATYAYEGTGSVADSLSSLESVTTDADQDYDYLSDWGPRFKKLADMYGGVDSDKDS
Put plainly: FACS, OVCAR3 cells. Here is the method: (§3) OVCAR3 cells with high expression of CDH6 and PA-1 cells with moderate expression of CDH6 were used to detect the binding activity of the antibodies to the cells. […] The cells were washed once with PBS, counted, resuspended to 2×10⁶ cells/mL in an FACS buffer (PBS+2% FBS), and then added to a 96-well plate at 50 μL/well. The chimeric antibodies were diluted with FACS buffer (PBS+2% FBS) and added to the 96-well plate at 50 μL/well, and the plate was incubated at 4° C. for 1 h. […] The dilution was added to the 96-well plate at 50 μL/well, and the plate was incubated at 4° C. for 1 h. After the plates were centrifuged and washed 2 times with PBS, the cells were resuspended in an FACS buffer. The mean fluorescence intensity (MFI) was measured using FACS Canton II (BD). Analysis was performed by the GraphPad Prism software, data were fitted, and EC50 values were calculated. The chimeric antibodies tested had strong binding to both OVCAR3 cells and PA-1 cells.
as §2, with “VH—CH1-Fc/VL-CL). According to the expression and purification methods in Example 2, the hCDH6-6 humanized antibodies were obtained, and the binding activity of the humanized antibodies was detected by ELISA and FACS (see 2.2 and 2.3 for the method).” for “VH—CH1-Fc/VL-CL).”

The target of test [4] is T1, his-tagged human CDH6 extracellular …. Put plainly: ELISA, coated antigen. The source holds these as a separate data set. For orientation: An ELISA detects its analyte on a solid surface through an enzyme-linked reagent.
For test [5] the target is unchanged. Put plainly: SPR Biacore, antibody captured on Protein A. As for the experimental part:
as §1
Four hCDH6-1 humanized antibodies with fewer back mutations were selected, and the affinity for human CDH6 protein was further confirmed using Biacore.
This is another data set of the same source.

The target in test [6] is T2, human CDH6 on tumor cells (OVCAR3 …). Put plainly: FACS, OVCAR3 cells. Here is the method: as §3
as §2, with “VH-CH1-Fc/VL-CL). According to the expression and purification methods in Example 2, the hCDH6-1 humanized antibodies were obtained, and the binding activity of the humanized antibodies was detected by ELISA and FACS (see 2.2 and 2.3 for the method).” for “VH—CH1-Fc/VL-CL).”
The source holds these as a separate data set.

Where two headings read alike, the source gives them in different places.

B1: hCDH6-6-H1L2 (antibody, V domains shown)
VH: EVQLVQSGAEVKKPGASVKVSCKASGYTFTDYYMAWVRQAPGQGLEWMGYIFPNSGGTDYSQKFKGRVTMTVDKSTSTVYMELSSLRSEDTAVYYCARELGADYGDYYAMDHWGQGTTVTVSS
VL: DIQMTQSPSSLSASVGDRVTITCRASENIDSYLAWYQQKPGKSPKLLVYSATLLADGVPSRFSGSGSGTDYTLTISSLQPEDFATYYCQHYYRTPPTFGQGTKLEIK
notes: Humanized
In test [1], B1 returned a Kd of 138 nM, an off-rate constant (koff) of 0.00607 s⁻¹ and a kon of 44100 M⁻¹ s⁻¹. Further, in test [2], the EC50 stood at 0.028 nM and the “Max OD450” value was found to be 2.07 OD450. Besides, in test [3], the EC50 came to 0.62 nM and the “Max MFI” value turned out to be 14300 MFI.

B2: hCDH6-6-H1L1 (antibody, V domains shown)
VH: EVQLVQSGAEVKKPGASVKVSCKASGYTFTDYYMAWVRQAPGQGLEWMGYIFPNSGGTDYSQKFKGRVTMTVDKSTSTVYMELSSLRSEDTAVYYCARELGADYGDYYAMDHWGQGTTVTVSS
VL: DIQMTQSPSSLSASVGDRVTITCRASENIDSYLAWYQQKPGKSPKLLLYSATLLADGVPSRFSGSGSGTDYTLTISSLQPEDFATYYCQHYYRTPPTFGQGTKLEIK
notes: Humanized
Take B2: in test [1], the Kd amounted to 192 nM, the dissociation rate constant (koff) is 0.00743 s⁻¹ and the kon worked out at 38600 M⁻¹ s⁻¹. For the same molecule, in test [2], a half-maximal effect (EC50) was put at 0.037 nM and the “Max OD450” value is 2.08 OD450. Further, in test [3], the EC50 is 0.62 nM and the “Max MFI” value came out at 13700 MFI.

B3: hCDH6-6-H2L1 (antibody, V domains shown)
VH: EVQLVQSGAEVKKPGASVKVSCKASGYTFTDYYMAWVRQAPGQGLEWMGYIFPNSGGTDYSQKFKGRVTLTVDKSTSTVYMELSSLRSEDTAVYYCARELGADYGDYYAMDHWGQGTTVTVSS
VL: DIQMTQSPSSLSASVGDRVTITCRASENIDSYLAWYQQKPGKSPKLLLYSATLLADGVPSRFSGSGSGTDYTLTISSLQPEDFATYYCQHYYRTPPTFGQGTKLEIK
notes: Humanized
As to B3, in test [1], binding was characterised by a dissociation constant (Kd) of 133 nM, the dissociation rate constant (koff) amounted to 0.00616 s⁻¹ and the kon came out at 46200 M⁻¹ s⁻¹. In test [2], the EC50 was 0.032 nM and the “Max OD450” value came out at 2.01 OD450. In addition, in test [3], the EC50 worked out at 0.61 nM and the “Max MFI” value was 14000 MFI.

B4: hCDH6-1-H1L3 (antibody, V domains shown)
VH: EVQLVQSGAEVKKPGSSVKVSCKASGYTFSNYWMHWVRQAPGQGLEWMGDIDPSHSETHYTQKFKDRVTITVDKSTSTAYMELSSLRSEDTAVYYCARGDLGRFDYWGQGTTVTVSS
VL: DIQMTQSPSSLSASVGDRVTITCRASESVSIHGTHLMHWYQQKPGKPPKLLIYAASNLESGVPSRFSGSGSETDFTFTISSLQPEDIATYYCQQSFEDPWTFGGGTKVEIK
notes: Humanized
In the case of B4, in test [4], it took 0.029 nM to reach a half-maximal effect (EC50) and the “Max OD450” value stood at 2.67 OD450. For the same molecule, in test [5], the affinity, expressed as Kd, was 18.9 nM; the koff was found to be 0.00824 s⁻¹; the kon stood at 435000 M⁻¹ s⁻¹. Moreover, in test [6], the EC50 came out at 0.175 nM and the “Max MFI” value is 14500 MFI.
